Reference: patent publication US20140193333A1 (OXFORD BIOTHERAPEUTICS, published 2014)

Molecular target: T1, ADP-ribosyl cyclase 2 (BST1), human, cell-surface (human, UniProt Q10588 33-293)
T1 construct: Endogenous BST1 on A549, H226 and U937 cells and on blood cells of AML patients; also called CD157; Bone marrow stromal antigen 1
T1 sequence: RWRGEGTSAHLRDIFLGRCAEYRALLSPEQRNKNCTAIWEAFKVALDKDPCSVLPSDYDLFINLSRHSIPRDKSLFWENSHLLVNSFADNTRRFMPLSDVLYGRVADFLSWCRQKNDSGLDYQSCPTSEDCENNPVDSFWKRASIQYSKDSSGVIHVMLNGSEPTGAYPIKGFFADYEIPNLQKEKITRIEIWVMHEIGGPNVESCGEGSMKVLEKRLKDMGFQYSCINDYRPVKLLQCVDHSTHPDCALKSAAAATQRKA
Assay: flow cytometry on BST1-expressing A549 and H226 cells
Protocol: The specificity of antibodies against the BST1 selected in Example 6 was also tested by flow cytometry. To test the ability of the antibodies to bind to the cell surface BST1 protein, the antibodies were incubated with the BST1-expressing cells, H226 (human lung squamous carcinoma) and A549 (human lung adenocarinoma). Cells were washed in FACS buffer (DPBS, 2% FBS), centrifuged and resuspended in 100 μl of the diluted primary BST1 antibody (also diluted in FACS buffer). The antibody-A549 complex and antibody-H226 complex were incubated on ice for 60 min and then washed twice with FACS buffer as described above. The cell-antibody pellet was resuspended in 100 μl of the diluted secondary antibody (also diluted in FACS buffer) and incubated on ice for 60 min on ice. The pellet was washed as before and resuspended in 200 μl FACS buffer. The samples were loaded onto the BD FACScanto II flow sytometer and the data analyzed using the BD FACSdiva software. The binding of BST1_[…] and BST1_A2 to BST1 expressed on A549 and H226 cells were analysed using flow cytometry.

B1: BST1_A1 anti-BST1 monoclonal antibody (Fab, V domains shown)
VH: QVKLQQSGAELVRPGSSVKISCKASGYAFSNSWINWVKQRPGQGLEWIGQIYPGDYDTNYNGKFKGKATLTADYSSSTAYMQLNSLTSEDSAVYFCARGGSIYYGNLGFFDVWGAGTTVTVSS
VL: EMVLTQSPAIMSTSLGERVTMTCTASSRVSSSYLHWYQQKPGSSPKLWIYSTSNLASGVPARFSGSGSGTSYSLTISSMEAEDAATYYCHQYHRSPYTFGGGTKLEIKR
- binding result: binds
